From paper PMC3253889 (Proteomics, 2011)

B1: LT-3F12 anti-LT-α monoclonal antibody purified from mouse ascites (antibody, V domains shown)
VH: QGQLQQSGAELMKPGASVKISCKATGYTFSSYWIEWVKQRPGHGLEWIGEISPGSGSTNYNEEFKGKATFTADKSSNTAYIQLSSLTSEDSAVYYCADGYHGYWGQGTTLTVSS
VL: DIVMSQSPSSLAVSVGEKVTMSCKSSQSLLYSTNQKNFLAWYQQKPGQSPKLLIYWASTRDSGVPDRFTGSGSGTDFTLTISSVKAEDLAVYYCQQYYSYPRTFGGGTKLEIK
B2: LT-3F12 rescued recombinant chimeric antibody (antibody, V domains shown)
VH: B1 VH
VL: B1 VL

Key:
[1] = molecular target: T1, human lymphotoxin alpha homo-trimer (LT-α3) (human, UniProt P01374); assay: ELISA
T1 sequence (P01374 35-205): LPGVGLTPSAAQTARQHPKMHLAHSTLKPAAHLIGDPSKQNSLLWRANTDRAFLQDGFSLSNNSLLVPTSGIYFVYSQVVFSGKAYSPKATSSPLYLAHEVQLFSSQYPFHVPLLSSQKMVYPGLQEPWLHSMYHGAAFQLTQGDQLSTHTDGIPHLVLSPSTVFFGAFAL

[2] = molecular target: T1, human lymphotoxin alpha homo-trimer …; assay: SPR
human LT-α3-biotin = human LT-α3-biotin (human, UniProt P01374, biotin); assay: ELISA
Chain of human LT-α3-biotin (P01374 35-205): as above

Binder	EC50 [1]	Kd [2]	IC50 (human LT-α3-biotin)
B1	0.018 nM	0.3 nM	47 nM
B2	0.037 nM	0.3 nM	
